Laboratory results: article PMC7023257

Biological target: SecY(S329C)EG (E. coli) (UniProt P0AGA2)

characteristic lifetime of the open channels at φ = −140 mV after cross-linking by KTT: 14 s
Binder: MKKTAIAIAVALAGFATVAQC
